The results in this text go back to the RNAGym collection of RNA variant scans (doi:10.7554/elife.80360).

The chains are these.
B1: CPEB3 Ribozyme (parent)
chain: GGGGGCCACAGCAGAAGCGUUCACGUCGCGGCCCCUGUCAGAUUCUGGUGAAUCUGCGAAUUCUGCUGU

The variants in the data set derive from B1. Description: self-cleavage, relative activity (ratio to wild type); higher = more cleavage; co-transcriptional.
Consider A8U G28U, for which the self-cleavage was 0.0893.

For A8U G28A, the self-cleavage came to 0.141.

With C9A G58C, the self-cleavage stood at 1.04.

C9A G58U: the self-cleavage came out at 1.04.

A8U U53G: the self-cleavage came out at 0.891.

Take A8U U53A: the self-cleavage worked out at 0.913.

Regarding C9A A13C, the self-cleavage came out at 0.965.

Regarding C9A A10C, the self-cleavage amounted to 1.02.

C9A A10G: the self-cleavage was 1.01.

With C9G A13U, the self-cleavage came to 0.837.

As to C9A G14A, the self-cleavage turned out to be 0.725.

Consider C9A G14U, for which the self-cleavage was 0.767.

Turning to C9A A40G, the self-cleavage stood at 1.

In the case of A8U G14C, the self-cleavage was 0.593.

With C9A U69A, the self-cleavage is 1.06.

On to A8G U69C, for which the self-cleavage was determined as 1.05.

A8G U69A: the self-cleavage is 0.928.

Take C9A C18G: the self-cleavage worked out at 0.26.

For A8U G30U, the self-cleavage amounted to 0.519.

As to A8U A51C, the self-cleavage stood at 0.974.

As to A8U C57A, the self-cleavage was determined as 0.299.

With A8U C57U, the self-cleavage was determined as 0.361.

Regarding C9A U38A, the self-cleavage was 0.989.

Consider C9A U38G, for which the self-cleavage was found to be 0.152.

For A8G U64G, the self-cleavage turned out to be 0.304.

Take A8U C45A: the self-cleavage is 1.01.

Regarding A8U C45G, the self-cleavage turned out to be 0.958.

On to A8G U61A, for which the self-cleavage amounted to 0.379.

In the case of A8U G65A, the self-cleavage came to 0.901.

On to C9A C22G, for which the self-cleavage was 0.181.

Consider C9A C22U, for which the self-cleavage worked out at 0.424.

C9A C22A: the self-cleavage turned out to be 0.251.

For the variant C9A G48A, the self-cleavage was 1.01.

On to A8U C29A, for which the self-cleavage amounted to 0.269.

For the variant C9A A59U, the self-cleavage came out at 0.897.

With A8U G48U, the self-cleavage turned out to be 1.03.

Consider A8G U43C, for which the self-cleavage is 0.758.

C9G C22A: the self-cleavage came to 0.189.

In the case of A8U A15C, the self-cleavage amounted to 0.812.

A8G U38G: the self-cleavage amounted to 0.0785.

For A8G U38A, the self-cleavage amounted to 0.662.

Regarding C9A C39U, the self-cleavage was 0.973.

As for C9A G65A, the self-cleavage stood at 0.955.

For the variant C9A G65U, the self-cleavage came to 0.844.

As for C9A U21A, the self-cleavage is 1.01.

As to A8U U21A, the self-cleavage was found to be 0.994.

With C9G A52C, the self-cleavage is 0.985.

Take C9G A52U: the self-cleavage was determined as 1.04.

On to A8G U62G, for which the self-cleavage came out at 0.367.

For the variant A8U U69G, the self-cleavage came to 1.06.

For C9A G56U, the self-cleavage was 0.98.

On to C9A G56C, for which the self-cleavage turned out to be 0.921.

With C9A C45G, the self-cleavage turned out to be 1.03.

Regarding C9A G17C, the self-cleavage was 0.204.

In the case of A8G U55A, the self-cleavage was 0.269.

Take C9A G31C: the self-cleavage was found to be 0.291.

With C9A G31U, the self-cleavage was determined as 0.961.

As to C9A G31A, the self-cleavage worked out at 1.

For the variant C9A G47C, the self-cleavage worked out at 1.

Turning to A8U C18U, the self-cleavage amounted to 0.928.

Regarding C9A, the self-cleavage amounted to 1.03.

Regarding C9G, the self-cleavage came out at 1.01.

As to C9A C29A, the self-cleavage stood at 0.86.

For C9A C29U, the self-cleavage was found to be 0.992.

Consider A8U C22A, for which the self-cleavage came to 0.154.

Take A8U G17A: the self-cleavage came out at 0.388.

Regarding A8U U55A, the self-cleavage is 0.967.

Consider C9A C63A, for which the self-cleavage was 0.953.

With C9A C63G, the self-cleavage was determined as 0.806.

Consider A8U U62G, for which the self-cleavage was determined as 0.945.

For the variant A8U U62A, the self-cleavage was 0.97.

In the case of C9A U44G, the self-cleavage came to 1.01.

As to A8U C9A, the self-cleavage was determined as 1.03.

C9A G37U: the self-cleavage is 0.401.

Turning to A8U C39U, the self-cleavage worked out at 0.986.

Turning to C9G C24G, the self-cleavage was determined as 0.608.

With C9A A15C, the self-cleavage was 0.931.

C9A A15U: the self-cleavage stood at 0.886.

On to A8U G11C, for which the self-cleavage turned out to be 0.873.

As to A8U U49C, the self-cleavage stood at 1.02.

Consider A8U U49A, for which the self-cleavage was determined as 0.98.

As for A8U C33A, the self-cleavage came out at 0.935.

Take A8U C33U: the self-cleavage came to 0.996.

For A8U U44A, the self-cleavage was 0.97.

As for C9A A52C, the self-cleavage was determined as 1.01.

Turning to C9A A52U, the self-cleavage was 1.03.

As for C9A A52G, the self-cleavage worked out at 1.02.

On to A8U A52C, for which the self-cleavage was 0.975.

Regarding A8U A23C, the self-cleavage stood at 0.944.

With A8U G58A, the self-cleavage is 0.995.

Turning to A8G U21G, the self-cleavage was found to be 0.199.

In the case of A8G U21A, the self-cleavage was 0.833.

For C9A G25C, the self-cleavage was found to be 0.228.

On to C9A C66U, for which the self-cleavage is 1.02.

For C9A C34G, the self-cleavage was 0.995.

On to C9G A15U, for which the self-cleavage amounted to 0.911.

C9G A15G: the self-cleavage came out at 0.988.

In the case of C9A U55G, the self-cleavage came to 0.874.

Take C9A U55C: the self-cleavage amounted to 0.982.

With C9G C18U, the self-cleavage turned out to be 0.935.

With A8U U61C, the self-cleavage was found to be 0.808.

In the case of C9A C12A, the self-cleavage was determined as 0.806.

Turning to A8G U53A, the self-cleavage amounted to 0.591.

Turning to A8G U53C, the self-cleavage was determined as 0.31.

With A8U A42G, the self-cleavage is 0.943.

With C9A U43C, the self-cleavage was 1.03.

Consider A8U G50U, for which the self-cleavage is 1.01.

Turning to C9G A51C, the self-cleavage is 0.674.

As to C9A A23C, the self-cleavage was 1.01.

Turning to A8U G41A, the self-cleavage is 0.789.

Consider A8U C12U, for which the self-cleavage was 1.05.

For C9A C32A, the self-cleavage was 1.

On to C9A C32G, for which the self-cleavage worked out at 0.843.

With C9A U26G, the self-cleavage came to 0.983.

Take C9G A16C: the self-cleavage turned out to be 0.548.

As to C9A C24U, the self-cleavage was 0.934.

Regarding C9A C24A, the self-cleavage was determined as 0.891.

With A8U A59G, the self-cleavage was 1.

As to C9A A16G, the self-cleavage stood at 0.992.

As to C9A A16C, the self-cleavage stood at 0.56.

As to C9G A23C, the self-cleavage was 0.993.

For C9A U67A, the self-cleavage turned out to be 1.03.

As for C9A U20C, the self-cleavage is 0.197.

For the variant A8U G37C, the self-cleavage is 0.169.

In the case of A8U A40G, the self-cleavage turned out to be 0.97.

Consider C9A G28A, for which the self-cleavage was found to be 0.265.

For the variant A8U G19U, the self-cleavage is 0.483.

In the case of A8U G19C, the self-cleavage stood at 0.146.

A8U U67A: the self-cleavage stood at 1.03.

A8U U67C: the self-cleavage was 1.

As to C9A C27A, the self-cleavage came to 0.798.

Regarding A8U C66U, the self-cleavage is 0.993.

On to A8U C66A, for which the self-cleavage worked out at 0.857.

Regarding C9G A59C, the self-cleavage turned out to be 0.896.

As for C9A U49A, the self-cleavage is 1.03.

Consider C9A U49G, for which the self-cleavage turned out to be 1.04.

Turning to C9A A42U, the self-cleavage was 0.997.

As for C9A A42G, the self-cleavage was 0.997.

For the variant C9A U53G, the self-cleavage came to 1.

A8G U44A: the self-cleavage amounted to 0.607.

A8G U44G: the self-cleavage came out at 0.651.

As for A8G U67A, the self-cleavage amounted to 0.59.

Turning to A8U G25U, the self-cleavage stood at 0.0965.

Take C9A U36A: the self-cleavage is 0.315.

For the variant A8U C35G, the self-cleavage stood at 0.435.

On to A8U U64C, for which the self-cleavage is 0.953.

For the variant A8U U64G, the self-cleavage was determined as 0.87.

Consider A8U C63U, for which the self-cleavage turned out to be 1.03.

A8U C63G: the self-cleavage turned out to be 0.782.

A8U U43G: the self-cleavage was determined as 0.913.

Regarding A8U G56C, the self-cleavage is 0.761.

Turning to C9G A60G, the self-cleavage turned out to be 0.952.

Take C9A G41U: the self-cleavage was determined as 0.955.

For A8U A10C, the self-cleavage came out at 1.03.

Consider A8U A10G, for which the self-cleavage was determined as 0.937.

Regarding C9A U46G, the self-cleavage was 1.04.

In the case of A8U U36G, the self-cleavage amounted to 0.163.

With C9A U62G, the self-cleavage is 0.943.

Take C9A U62C: the self-cleavage came out at 0.931.

For the variant C9A G50U, the self-cleavage was 0.999.

For the variant C9A G50A, the self-cleavage amounted to 1.02.

In the case of C9A G50C, the self-cleavage was determined as 1.03.

In the case of A8U A13U, the self-cleavage was determined as 0.805.

On to C9G A40C, for which the self-cleavage was 0.715.

With C9G A40U, the self-cleavage was determined as 0.827.

As to A8G U36G, the self-cleavage turned out to be 0.135.

With A8G U36C, the self-cleavage is 0.593.
